Consider 28 sequences from the supplement of paper PMC10724198.

The test system of this data set is Saccharomyces cerevisiae. The data set can be described thus: protein stability index of tFT-peptide fusion (C-terminal peptide) (PSI (0-1 scale)); higher = more stable (slower turnover). To be noted: temperature: 30 C. As for the experimental part: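 MPS profiling in S. cerevisiae of the yeast C-terminome library: the last 12 aa of each annotated ORF are fused to the C-terminus of a sfGFP-mCherry timer, after a GGGS linker. Cells are FACS-sorted into 8 mCherry/sfGFP bins and deep-sequenced. PSI runs from 0 (unstable) to 1 (stable); wild type and das1Δ backgrounds, two technical replicates each.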

The mark [1] stands for this setting: genetic background: das1 deletion.

± gives the standard deviation of the averaged measurements.

Consider VLSVISAVFGLI [PLB1 C-terminal 12 aa], for which the protein stability index is, setting by setting: under setting [1], 0.674 ± 0.016; (genetic background: wild type) 0.672 ± 0.045.

Take VLTAGVNSVAIK [RPN11 C-terminal 12 aa]: the protein stability index is 0.6646 ± 0.0021 under setting [1] and 0.63 ± 0.0097 (genetic background: wild type).

Take VLVCFQTFILLQ [YDL032W C-terminal 12 aa]: the protein stability index came out at 0.152 ± 0.012 under setting [1] and 0.162 ± 0.0082 (genetic background: wild type).

As for VMLFSSNHQALG [MAG2 C-terminal 12 aa], the protein stability index was found to be 0.704 ± 0.014 under setting [1] and 0.693 ± 0.014 (genetic background: wild type).

Consider VNFDIEEEQEGQ [JJJ3 C-terminal 12 aa], for which the protein stability index is, setting by setting: under setting [1], 0.685 ± 0.011; (genetic background: wild type) 0.791 ± 0.071.

Take VRKGQEKSKKHS [SEI1 C-terminal 12 aa]: the protein stability index is 0.678 ± 0.01 under setting [1] and 0.737 ± 0.06 (genetic background: wild type).

The sequence VRVPKKSKKLKK [PDR10 C-terminal 12 aa] gave a protein stability index under setting [1] of 0.7169 ± 0.0069 and a protein stability index (genetic background: wild type) of 0.705 ± 0.012.

Regarding VSKELRSRDLLD [RPE1 C-terminal 12 aa], the protein stability index is, setting by setting: under setting [1], 0.68 ± 0.027; (genetic background: wild type) 0.699 ± 0.0075.

VSNNLIIDEETF [BIM1 C-terminal 12 aa]: the protein stability index is, setting by setting: under setting [1], 0.7174 ± 0.0056; (genetic background: wild type) 0.7214 ± 0.0042.

Consider VSSLRKHGEHYS [TRM82 C-terminal 12 aa], for which the protein stability index runs as follows: under setting [1], 0.704 ± 0.021; (genetic background: wild type) 0.6079 ± 0.0053.

With VTSIMDMPISRE [MVP1 C-terminal 12 aa], the protein stability index by setting is: under setting [1], 0.685 ± 0.019; (genetic background: wild type) 0.684 ± 0.019.

With VTSKSALESIFP [YGP1 C-terminal 12 aa], the protein stability index by setting is: under setting [1], 0.73 ± 0.0083; (genetic background: wild type) 0.678 ± 0.031.

In the case of VVLSYSMVGSVM [MAY24 C-terminal 12 aa], the protein stability index under setting [1] was determined as 0.4645 ± 0.0021 and the protein stability index (genetic background: wild type) stood at 0.474 ± 0.026.

As to VVVCRLHFSLPV [YKL111C C-terminal 12 aa], the protein stability index reads like this: under setting [1], 0.562 ± 0.0059; (genetic background: wild type) 0.57 ± 0.012.

On to VVYYHMVCKNIT [YHR125W C-terminal 12 aa], for which the protein stability index under setting [1] was 0.5662 ± 0.0017 and the protein stability index (genetic background: wild type) amounted to 0.573 ± 0.038.

In turn, VWNTFYKLGKRV [TMT1 C-terminal 12 aa] came in with a protein stability index under setting [1] of 0.7048 ± 0.0066 and a protein stability index (genetic background: wild type) of 0.6583 ± 0.0029.

Regarding VYDYQYIYKGKQ [SIA1 C-terminal 12 aa], the protein stability index under setting [1] is 0.701 ± 0.016 and the protein stability index (genetic background: wild type) was found to be 0.698 ± 0.016.

For the sequence VYTSKTRYRFAV [YHR210C C-terminal 12 aa], the protein stability index is, setting by setting: under setting [1], 0.7137 ± 0.0024; (genetic background: wild type) 0.578 ± 0.012.

For WEHLHSGFSKNK [ELG1 C-terminal 12 aa], the protein stability index runs as follows: under setting [1], 0.723 ± 0.012; (genetic background: wild type) 0.716 ± 0.019.

Regarding WKKFLKFSKGSD [HXT17 C-terminal 12 aa], the protein stability index by setting is: under setting [1], 0.696 ± 0.0084; (genetic background: wild type) 0.703 ± 0.099.

In turn, WKQGGGDFRTKK [RBA50 C-terminal 12 aa] yielded a protein stability index under setting [1] of 0.709 ± 0.022 and a protein stability index (genetic background: wild type) of 0.667 ± 0.033.

In the case of WLDCTTLPNYQG [KAP122 C-terminal 12 aa], the protein stability index by setting is: under setting [1], 0.7222 ± 0.0061; (genetic background: wild type) 0.707 ± 0.028.

For WNLQTLAADDAF [RPB11 C-terminal 12 aa], the protein stability index reads like this: under setting [1], 0.765 ± 0.03; (genetic background: wild type) 0.729 ± 0.049.

As to “WYNPSNQTYKSK [YLR222C-A C-terminal 12 aa]”, the protein stability index worked out at 0.719 ± 0.038 under setting [1] and 0.727 ± 0.071 (genetic background: wild type).

In the case of YAVSELEGPMLD [CSC1 C-terminal 12 aa], the protein stability index reads like this: under setting [1], 0.7 ± 0.016; (genetic background: wild type) 0.6479 ± 0.0011.

With YCLFEKPTETTN [ALG9 C-terminal 12 aa], the protein stability index reads like this: under setting [1], 0.736 ± 0.029; (genetic background: wild type) 0.695 ± 0.061.

Consider YDYNSKNSRGFY [DEF1 C-terminal 12 aa], for which the protein stability index was found to be 0.6999 ± 0.0051 under setting [1] and 0.676 ± 0.033 (genetic background: wild type).

Consider YFKETLYKLANE [HIS5 C-terminal 12 aa], for which the protein stability index amounted to 0.687 ± 0.023 under setting [1] and 0.705 ± 0.085 (genetic background: wild type).
